According to patent US20230383269A1 (DSM AUSTRIA, published 2023):

B1: alpha/beta hydrolase variant of SEQ ID NO: 10 (R155K, N167T, S174C, V175A) (enzyme)
chain: MTDQSPETRDIFVPHAFEEQQVDLGEVVMNYVEAGSADHPALLLLPEQTGSWWSYEPVIGLLAESFHVFAVDIRGQGRSTWTPKRYSLDNFGNDLVRFISLVVKRPVIVSGNSSGGVLAAWLSAYAMPGQIRAALCEDTPFFASELVPAHGHSVKQAAGPAFELYRTFLGDQWCAADWDGFAAAAKASPSKIMSLFPSSDEPPQNLKEYDPEWARAFFEGTVALHCPHDLMLSQVKTPILITHHARAVDPHSGDLLGALSDFQAERAQAIIESAGVPVEYASFPDALHMMHQFEPERFAEVLTSWVARLPADTPGAHHHHHH
notes: homo-tetramer; also called zearalenone-cleaving polypeptide
B2: alpha/beta hydrolase variant of SEQ ID NO: 11 (R155K, N167T, S174C, V175T) (enzyme)
chain: MTDQSPETRDIFVPHAFEEQQVDLGEVVMNYVEAGSADHPALLLLPEQTGSWWSYEPVIGLLAESFHVFAVDIRGQGRSTWTPKRYSLDNFGNDLVRFISLVVKRPVIVSGNSSGGVLAAWLSAYAMPGQIRAALCEDTPFFASELVPAHGHSVKQAAGPAFELYRTFLGDQWCTADWDGFAAAAKASPSKIMSLFPSSDEPPQNLKEYDPEWARAFFEGTVALHCPHDLMLSQVKTPILITHHARAVDPHSGDLLGALSDFQAERAQAIIESAGVPVEYASFPDALHMMHQFEPERFAEVLTSWVARLPADTPGAHHHHHH
notes: as for B1
B3: alpha/beta hydrolase variant of SEQ ID NO: 12 (N167S, S174C) (enzyme)
chain: MTDQSPETRDIFVPHAFEEQQVDLGEVVMNYVEAGSADHPALLLLPEQTGSWWSYEPVIGLLAESFHVFAVDIRGQGRSTWTPKRYSLDNFGNDLVRFISLVVKRPVIVSGNSSGGVLAAWLSAYAMPGQIRAALCEDTPFFASELVPAHGHSVRQAAGPAFELYRSFLGDQWCVADWDGFAAAAKASPSKIMSLFPSSDEPPQNLKEYDPEWARAFFEGTVALHCPHDLMLSQVKTPILITHHARAVDPHSGDLLGALSDFQAERAQAIIESAGVPVEYASFPDALHMMHQFEPERFAEVLTSWVARLPADTPGAHHHHHH
notes: as for B1
B4: alpha/beta hydrolase variant of SEQ ID NO: 13 (N167T, S174C, F218Y) (enzyme)
chain: MTDQSPETRDIFVPHAFEEQQVDLGEVVMNYVEAGSADHPALLLLPEQTGSWWSYEPVIGLLAESFHVFAVDIRGQGRSTWTPKRYSLDNFGNDLVRFISLVVKRPVIVSGNSSGGVLAAWLSAYAMPGQIRAALCEDTPFFASELVPAHGHSVRQAAGPAFELYRTFLGDQWCVADWDGFAAAAKASPSKIMSLFPSSDEPPQNLKEYDPEWARAFYEGTVALHCPHDLMLSQVKTPILITHHARAVDPHSGDLLGALSDFQAERAQAIIESAGVPVEYASFPDALHMMHQFEPERFAEVLTSWVARLPADTPGAHHHHHH
notes: as for B1
B5: alpha/beta hydrolase variant of SEQ ID NO: 14 (N167T, F168Y, S174C) (enzyme)
chain: MTDQSPETRDIFVPHAFEEQQVDLGEVVMNYVEAGSADHPALLLLPEQTGSWWSYEPVIGLLAESFHVFAVDIRGQGRSTWTPKRYSLDNFGNDLVRFISLVVKRPVIVSGNSSGGVLAAWLSAYAMPGQIRAALCEDTPFFASELVPAHGHSVRQAAGPAFELYRTYLGDQWCVADWDGFAAAAKASPSKIMSLFPSSDEPPQNLKEYDPEWARAFFEGTVALHCPHDLMLSQVKTPILITHHARAVDPHSGDLLGALSDFQAERAQAIIESAGVPVEYASFPDALHMMHQFEPERFAEVLTSWVARLPADTPGAHHHHHH
notes: as for B1
B6: alpha/beta hydrolase variant of SEQ ID NO: 15 (N167T, F168Y, S174C, D179E, A182C, A183R, K186R, A187R, F218Y) (enzyme)
chain: MTDQSPETRDIFVPHAFEEQQVDLGEVVMNYVEAGSADHPALLLLPEQTGSWWSYEPVIGLLAESFHVFAVDIRGQGRSTWTPKRYSLDNFGNDLVRFISLVVKRPVIVSGNSSGGVLAAWLSAYAMPGQIRAALCEDTPFFASELVPAHGHSVRQAAGPAFELYRTYLGDQWCVADWEGFCRAARRSPSKIMSLFPSSDEPPQNLKEYDPEWARAFYEGTVALHCPHDLMLSQVKTPILITHHARAVDPHSGDLLGALSDFQAERAQAIIESAGVPVEYASFPDALHMMHQFEPERFAEVLTSWVARLPADTPGAHHHHHH
notes: as for B1
B7: alpha/beta hydrolase variant of SEQ ID NO: 16 (N167T, F168Y, S174C, D179E, A182C, A183R, K186R, A187R, F218Y, Q268L, V306I) (enzyme)
chain: MTDQSPETRDIFVPHAFEEQQVDLGEVVMNYVEAGSADHPALLLLPEQTGSWWSYEPVIGLLAESFHVFAVDIRGQGRSTWTPKRYSLDNFGNDLVRFISLVVKRPVIVSGNSSGGVLAAWLSAYAMPGQIRAALCEDTPFFASELVPAHGHSVRQAAGPAFELYRTYLGDQWCVADWEGFCRAARRSPSKIMSLFPSSDEPPQNLKEYDPEWARAFYEGTVALHCPHDLMLSQVKTPILITHHARAVDPHSGDLLGALSDFQAERALAIIESAGVPVEYASFPDALHMMHQFEPERFAEVLTSWIARLPADTPGAHHHHHH
notes: as for B1
B8: alpha/beta hydrolase variant of SEQ ID NO: 17 (D10N, N167T, F168Y, S174C, D179E, A182C, A183R, K186R, A187R, F218Y) (enzyme)
chain: MTDQSPETRNIFVPHAFEEQQVDLGEVVMNYVEAGSADHPALLLLPEQTGSWWSYEPVIGLLAESFHVFAVDIRGQGRSTWTPKRYSLDNFGNDLVRFISLVVKRPVIVSGNSSGGVLAAWLSAYAMPGQIRAALCEDTPFFASELVPAHGHSVRQAAGPAFELYRTYLGDQWCVADWEGFCRAARRSPSKIMSLFPSSDEPPQNLKEYDPEWARAFYEGTVALHCPHDLMLSQVKTPILITHHARAVDPHSGDLLGALSDFQAERAQAIIESAGVPVEYASFPDALHMMHQFEPERFAEVLTSWVARLPADTPGAHHHHHH
notes: as for B1
B9: alpha/beta hydrolase variant of SEQ ID NO: 18 (F17Y, I59M, N167T, F168Y, S174C, D179E, A182C, A183R, K186R, A187R, F218Y) (enzyme)
chain: MTDQSPETRDIFVPHAYEEQQVDLGEVVMNYVEAGSADHPALLLLPEQTGSWWSYEPVMGLLAESFHVFAVDIRGQGRSTWTPKRYSLDNFGNDLVRFISLVVKRPVIVSGNSSGGVLAAWLSAYAMPGQIRAALCEDTPFFASELVPAHGHSVRQAAGPAFELYRTYLGDQWCVADWEGFCRAARRSPSKIMSLFPSSDEPPQNLKEYDPEWARAFYEGTVALHCPHDLMLSQVKTPILITHHARAVDPHSGDLLGALSDFQAERAQAIIESAGVPVEYASFPDALHMMHQFEPERFAEVLTSWVARLPADTPGAHHHHHH
notes: as for B1
B10: alpha/beta hydrolase variant of SEQ ID NO: 19 (V28T, N167T, F168Y, S174C, D179E, A182C, A183R, K186R, A187R, F218Y) (enzyme)
chain: MTDQSPETRDIFVPHAFEEQQVDLGEVTMNYVEAGSADHPALLLLPEQTGSWWSYEPVIGLLAESFHVFAVDIRGQGRSTWTPKRYSLDNFGNDLVRFISLVVKRPVIVSGNSSGGVLAAWLSAYAMPGQIRAALCEDTPFFASELVPAHGHSVRQAAGPAFELYRTYLGDQWCVADWEGFCRAARRSPSKIMSLFPSSDEPPQNLKEYDPEWARAFYEGTVALHCPHDLMLSQVKTPILITHHARAVDPHSGDLLGALSDFQAERAQAIIESAGVPVEYASFPDALHMMHQFEPERFAEVLTSWVARLPADTPGAHHHHHH
notes: as for B1
B11: alpha/beta hydrolase variant of SEQ ID NO: 2 (N167T, F168Y, S174C, F218Y) (enzyme)
chain: MTDQSPETRDIFVPHAFEEQQVDLGEVVMNYVEAGSADHPALLLLPEQTGSWWSYEPVIGLLAESFHVFAVDIRGQGRSTWTPKRYSLDNFGNDLVRFISLVVKRPVIVSGNSSGGVLAAWLSAYAMPGQIRAALCEDTPFFASELVPAHGHSVRQAAGPAFELYRTYLGDQWCVADWDGFAAAAKASPSKIMSLFPSSDEPPQNLKEYDPEWARAFYEGTVALHCPHDLMLSQVKTPILITHHARAVDPHSGDLLGALSDFQAERAQAIIESAGVPVEYASFPDALHMMHQFEPERFAEVLTSWVARLPADTPGAHHHHHH
notes: as for B1
B12: alpha/beta hydrolase variant of SEQ ID NO: 20 (H39R, N167T, F168Y, S174C, D179E, A182C, A183R, K186R, A187R, F218Y) (enzyme)
chain: MTDQSPETRDIFVPHAFEEQQVDLGEVVMNYVEAGSADRPALLLLPEQTGSWWSYEPVIGLLAESFHVFAVDIRGQGRSTWTPKRYSLDNFGNDLVRFISLVVKRPVIVSGNSSGGVLAAWLSAYAMPGQIRAALCEDTPFFASELVPAHGHSVRQAAGPAFELYRTYLGDQWCVADWEGFCRAARRSPSKIMSLFPSSDEPPQNLKEYDPEWARAFYEGTVALHCPHDLMLSQVKTPILITHHARAVDPHSGDLLGALSDFQAERAQAIIESAGVPVEYASFPDALHMMHQFEPERFAEVLTSWVARLPADTPGAHHHHHH
notes: as for B1
B13: alpha/beta hydrolase variant of SEQ ID NO: 21 (E47S, G50E, N167T, F168Y, S174C, D179E, A182C, A183R, K186R, A187R, F218Y) (enzyme)
chain: MTDQSPETRDIFVPHAFEEQQVDLGEVVMNYVEAGSADHPALLLLPSQTESWWSYEPVIGLLAESFHVFAVDIRGQGRSTWTPKRYSLDNFGNDLVRFISLVVKRPVIVSGNSSGGVLAAWLSAYAMPGQIRAALCEDTPFFASELVPAHGHSVRQAAGPAFELYRTYLGDQWCVADWEGFCRAARRSPSKIMSLFPSSDEPPQNLKEYDPEWARAFYEGTVALHCPHDLMLSQVKTPILITHHARAVDPHSGDLLGALSDFQAERAQAIIESAGVPVEYASFPDALHMMHQFEPERFAEVLTSWVARLPADTPGAHHHHHH
notes: as for B1
B14: alpha/beta hydrolase variant of SEQ ID NO: 22 (P57E, V58A, I59M, N167T, F168Y, S174C, D179E, A182C, A183R, K186R, A187R, F218Y) (enzyme)
chain: MTDQSPETRDIFVPHAFEEQQVDLGEVVMNYVEAGSADHPALLLLPEQTGSWWSYEEAMGLLAESFHVFAVDIRGQGRSTWTPKRYSLDNFGNDLVRFISLVVKRPVIVSGNSSGGVLAAWLSAYAMPGQIRAALCEDTPFFASELVPAHGHSVRQAAGPAFELYRTYLGDQWCVADWEGFCRAARRSPSKIMSLFPSSDEPPQNLKEYDPEWARAFYEGTVALHCPHDLMLSQVKTPILITHHARAVDPHSGDLLGALSDFQAERAQAIIESAGVPVEYASFPDALHMMHQFEPERFAEVLTSWVARLPADTPGAHHHHHH
notes: as for B1
B15: alpha/beta hydrolase variant of SEQ ID NO: 23 (A63S, S65H, N167T, F168Y, S174C, D179E, A182C, A183R, K186R, A187R, F218Y) (enzyme)
chain: MTDQSPETRDIFVPHAFEEQQVDLGEVVMNYVEAGSADHPALLLLPEQTGSWWSYEPVIGLLSEHFHVFAVDIRGQGRSTWTPKRYSLDNFGNDLVRFISLVVKRPVIVSGNSSGGVLAAWLSAYAMPGQIRAALCEDTPFFASELVPAHGHSVRQAAGPAFELYRTYLGDQWCVADWEGFCRAARRSPSKIMSLFPSSDEPPQNLKEYDPEWARAFYEGTVALHCPHDLMLSQVKTPILITHHARAVDPHSGDLLGALSDFQAERAQAIIESAGVPVEYASFPDALHMMHQFEPERFAEVLTSWVARLPADTPGAHHHHHH
notes: as for B1

Biological target: the molecule itself
Experiment: Blue-Native-PAGE, oligomeric conformation (self-association of identical chains)
Excerpt: Comparison of the native molecular weight (oligomeric conformation) between single purified zearalenone-cleaving polypeptides was done via Blue-Native-PAGE. Dilutions of the elutes were supplied with not denaturating loading dye (e.g. 2× loading dye: 0.126 M tris(hydroxymethyl)aminomethan/hydrochloric acid pH 6.8, 20.0% glycerol, 4.0% Coomassie Blue G-250) and separated on a 4-15% polyacrylamid gel under native conditions (e.g. Mini-PROTEAN® Tetra Cell System, 1658004EDU+4-15% Mini-PROTEAN® TGX™ Precast Protein Gels, 4561083EDU, Bio-Rad Laboratories GmbH) (5× Anode Buffer: 0.125 M Tris(hydroxymethyl)aminomethane, 0.960 M Glycine, 1× Kathode Buffer: Anode Buffer+0.02% Coomassie Blue G250; 200 V, 40 minutes). The peptide bands were visualized by Coomassie staining. The oligomeric state of selected zearalenone-cleaving polypeptides was determined by size exclusion chromatography, SEC-MALS or X-Ray crystallography. Homo-dimers (e.g. SEQ ID NO. 1) migrated faster across the BN-PAGE gel matrix, while homo-tetramers (e.g. SEQ ID NO. 2-35) were retained in the gel matrix to a higher extent. The oligomeric conformation of the zearalenone-cleaving polypeptides was determined relatively to the migration of homo-dimeric and homo-tetrameric peptides.

Binding result, binds:
B1
B2
B3
B4
B5
B6
B7
B8
B9
B10
B11
B12
B13
B14
B15
